Experimental data taken from patent publication US20200223906A1 (Adimab, published 2020).
Positions count from the first letter of the chain named.

B1: ADI-18900 (antibody, V domains shown)
VH: EVQLLESGGALVEPGGSLRLSCAASGFSFNTYSMNWVRQGPGKGLEWVATISTSTAGSYYADSVRGRFTISRDNSKNTLYLQMNSLRVEDTAVYYCARDQEVELIDDAFDFWGRGTMVTVSS
VL: DIVMTQTHSSLSASVGDRVTITCRASQSISIWVAWYQQKPGKAPNLLIYKASSLQSGVPSRFSGSGSGTEFTLTISSLQPDDSATYYCQQYYTYYSFGQGTKLEIK
notes: full-length IgG from yeast
B2: ADI-18893 (antibody, V domains shown)
VH: EVQLLESGGGLVKPGGSLRLSCVASGFTFSSYNINWVRQAPGKGLEWVSSISGGSNYIDYADSVKGRFTISRDNAKNSLYLQMNNLRAEDTAVYYCARLGYGGNPELDYWGQGTLVTVSS
VL: QSVLTQPPSVSGAPGQRVTISCTGSSSNIGAGYDVHWYQQRPGTAPKLLIYANNNRPSGVPDRFSGSKSGTSASLAITGLQAEDEADYYCQSYDLSLSSSRVFGGGTKLTVL
notes: full-length IgG from yeast; also called Antibody Number 248; Ab # 248
B3: ADI-18923 (antibody, V domains shown)
VH: EVQLLESGGGLVKPGGSLRLSCAASGFTFSSYSMNWVRQAPGKGLEWVSSISSSSSYIYYADSVKGRFTISRDNAKNSLYLQMNSLRAEDTAVYYCARDWPNSSSSPNWFDPWGQGTLVTVSS
VL: B2 VL with R41L, A52G, N54S, L95S, S99G, S100F, R101Y, G105T
notes: full-length IgG from yeast
B4: ADI-18912 (antibody, V domains shown)
VH: EVQLVESGGGLVKPGGALRLSCAASGFSFRSYSMNWVRQAPGKGLEWVSSISSSSNYINYADSVKGRFSISRDNAKNSLYLQMNSLRAEDTAVYYCARDLLPVERGPAFDIWGQGTMVTVSS
VL: SYELTQPPSVSGAPGQRVTISCTGSSSNIGAGYDVHWFQQLPGAAPKLLIYANSNRPSGVPDRFSGSKSGTSASLAITGLQAEDEADYYCQSYDSRLGGSVFGGGTKVTVL
notes: full-length IgG from yeast
B5: ADI-18920 (antibody, V domains shown)
VH: EVQLLESGGGVVQPGRSLRLSCAASGFTFSSYAMHWVRQTPDKGLEWVALISDDGRNEYYADSVQGRFTISRDKSKNTLHLEMNSLRAEDTAVYYCAKVRNEAWELLGNDDALDVWGQGTMVTVSS
VL: QSVLTQPPSVSAAPGQKVTISCSGTSFNIGSNYVSWYQLLPGTAPKLLIFDNYKRPSGIPDRFSGSWSGTSATLAISGLQTGDEAEYFCGTWDTSLRAGVFGGGTKLTVL
notes: full-length IgG from yeast; also called Antibody Number 274; Ab # 274
B6: ADI-18908 (antibody, V domains shown)
VH: QVQLVESGGGLVKPGGSLRLSCAASGFTFSSFGMHWVRQAPGQGLEWVASITGGSSYINYADSVKGRFTISRDNAKKSLSLQMKNLRAEDTAEYYCVRGVLPGGTGGGWFDSWGQGTLVTVSS
VL: QSVLTQPPSMSGAPGQRVTISCTGTSSNIGAGYDVQWYQQFPGTAPKLLISGNNNRPSGVPDRFSGSKSGASASLAITGLQAEDEADYYCQSYDYSLNWVFGGGTKLTVL
notes: full-length IgG from yeast
B7: ADI-18917 (antibody, V domains shown)
VH: B6 VH with Q1E, G104D
VL: B6 VL
notes: full-length IgG from yeast; also called Antibody Number 271; Ab # 271
B8: ADI-18915 (antibody, V domains shown)
VH: QVQLVQSGGGLVKPGGSLRLSCAASGFTFSKAWMNWVRQAPGKGLEWVGRIRSKTDGGTADYAAPVKGRFTMSRDDSKNTLYLQMNSLKTEDTAVYYCATDSRRLYDSRGFYSSAFDVWGQGTTVTVSS
VL: QSVLTQPPSVSGAPGQRVTISCTGSSSNIGAGYDVHWYQHLPGTAPKVLIYGNNNRPSGVPDRFSGSKSGTSASLAITGLQAEDEADYYCQSYDDSLTGWVFGGGTKVTVL
notes: full-length IgG from yeast; also called Antibody Number 269; Ab # 269
B9: ADI-18913 (antibody, V domains shown)
VH: QVQLVQSGPEVKKPGESLTISCKGSGYDFSNNWIGWVRQMPGKGLEWMGIIYPGDSDTRYSPSFQGQVTLSVDKSISTAYLQWRSLKASDSGIYYCARQIGGLVCSSESCYFYGMDVWGQGTTVTVSS
VL: DIQLTQSPSSLSASVGGRVTITCRASQSISNYLNWYQHKPGKAPELLIYGASSLQSGVPSRFSGSGSGTDFTLTISSLQPEDFATYYCQQSDTTPFTFGQGTKVDIK
notes: full-length IgG from yeast
B10: ADI-18916 (antibody, V domains shown)
VH: B9 VH
VL: B9 VL with Q3R, L4V, V104L, D105E
notes: full-length IgG from yeast; also called Antibody Number 270; Ab # 270
B11: ADI-18877 (antibody, V domains shown)
VH: QVQLVQSGTEVKKPGASVKVSCKAAGYTFSNYGVSWVRQAPGQGLEWMGWISAYNGNTKFAQKVQGRLTMTTDTSTSTAYMELRNLRSDDTAVYYCARESGATAAAMFDYWGQGTLVTVSS
VL: ETTLTQSPLSLPVTLGQPASISCRSSQSLEYSDGNIYLSWFQQRPGQSPRRLIYKVSHRDSGVPDRFSGSGSGTDFTLKIARVEAEDVAVYYCMQAIHWPRTFGQGTKVDIK
notes: full-length IgG from yeast; also called Antibody Number 234; Ab # 234
B12: ADI-18898 (antibody, V domains shown)
VH: B11 VH
VL: B11 VL with T2I, T3V, D110E
notes: full-length IgG from yeast
B13: ADI-18919 (antibody, V domains shown)
VH: QVQLQESGPGLEKPSQTLSLTCTVSRGSIRIGGYFWSWIRQHPGKGLEWLGYISNDGATDYNPSLRSRLAISADTSKNQFSLTLRSVTAADTAIYYCARTSYAGRMLDRWGQGILVTVSS
VL: DIRVTQSPVSLPVTPGEPASISCRSSQSLLHSNGNNYLDWYLQKPGQSPQLLIYMGSYRASGVPDRFSGSGSGTDFTLKISRVEAEDVGVYYCMQGLQIPWTFGQGTKLEIK
notes: full-length IgG from yeast
B14: ADI-18902 (antibody, V domains shown)
VH: QVQLQESGPGLVKPSETLSLTCTVSGGSISGYYWSWIRQPPGRGLEWIGFIYYSGSTSYDSSLKSRVTISVDTSKNQFSLNLSSVTAADTAVYYCARSTWDYGDHFPFDYWGQGTLVTVSS
VL: SYELTQPPSVSVAPGKTARITCGGNNIGIKDVHWYQLRPGQAPVLVISYDSDRPSGIPERFSGSNSGNTATLTISRVEAGDEADYFCQVWDSSPDHPYVFGTGTKLTVL
notes: full-length IgG from yeast

What was measured:
[1] = molecular target: T1, RSV F subtype A, furin-cleaved ectodomain stabilized in the prefusion conformation (DS-Cav1) (Respiratory syncytial virus subtype A, UniProt P03420 26-524); assay: BLI, IgG on AHQ sensor, 100 nM antigen
T1 construct: extracellular domain; Trimeric soluble antigen; also called Prefusion subtype A

[2] = molecular target: T2, RSV F subtype B, furin-cleaved ectodomain stabilized in the prefusion conformation (DS-Cav1) (Respiratory syncytial virus subtype B); assay: BLI, IgG on AHQ sensor, 100 nM antigen
T2 construct: extracellular domain; Trimeric soluble antigen; also called Prefusion subtype B

[3] = molecular target: RSV F protein of subtype A (strain A2) on recombinant mKate-RSV virus (Respiratory syncytial virus subtype A …, UniProt P03420 26-574); assay: cell-based or functional assay
[4] = molecular target: RSV F protein of subtype B (18537) on recombinant mKate-RSV virus (Respiratory syncytial virus subtype B …, UniProt P13843 26-574); assay: cell-based or functional assay

Binder	Kd [1]	Kd [2]	Neut IC50 (µg/ml) subtype A [3]	Neut IC50 (µg/ml) subtype B [4]
B1	1190 pM	331 pM	0.035 µg/mL	0.059 µg/mL
B2	245 pM	278 pM	0.123 µg/mL	0.182 µg/mL
B3	517 pM	1790 pM	0.078 µg/mL	0.147 µg/mL
B4	258 pM	286 pM	0.024 µg/mL	0.061 µg/mL
B5	678 pM	97.7 pM	0.041 µg/mL	0.049 µg/mL
B6	302 pM	352 pM	0.018 µg/mL	0.095 µg/mL
B7	356 pM	332 pM	0.024 µg/mL	0.091 µg/mL
B8	28100 pM	421 pM	1.2 µg/mL	0.021 µg/mL
B9	568 pM	471 pM	< 0.01 µg/mL	< 0.01 µg/mL
B10	585 pM	465 pM	< 0.01 µg/mL	< 0.01 µg/mL
B11	303 pM	383 pM	0.41 µg/mL	0.13 µg/mL
B12	305 pM	325 pM	0.03 µg/mL	0.097 µg/mL
B13	202 pM	163 pM	0.123 µg/mL	0.261 µg/mL
B14	107 pM	101 pM	0.024 µg/mL	0.15 µg/mL
